From paper PMC11033526, “Direct binding of calmodulin to the cytosolic C-terminal regions of sweet/umami taste receptors” (Journal of Biochemistry, 2023)

How the values were obtained:
[1] = target: biotin-mT1r3 CT peptide (cytosolic C-terminal region of mouse taste receptor type 1 subunit 3) (mouse) (UniProt Q925D8); assay: SPR; Biacore 2000; biotinylated T1r peptides on a CAP chip (Biotin CAPture Kit); mCaM injected, 2-fold dilutions from 50 μM, +Ca2+ (1 mM CaCl2), 25°C, 30 μl/min; KD from equilibrium responses, 1:1 model
[2] = target: biotin-mT1r1 CT peptide (cytosolic C-terminal region of mouse taste receptor type 1 subunit 1) (mouse) (UniProt Q99PG6); assay: as above
[3] = target: biotin-mT1r2 CT peptide (cytosolic C-terminal region of mouse taste receptor type 1 subunit 2) (mouse) (UniProt Q925I4); assay: as above
[4] = target: FLAG-ySUMO-mT1r3 CTΔ (mouse); assay: SPR; Biacore 2000; ySUMO-fusion proteins amine-coupled on a CM5 chip, ySUMO on the reference cell; mCaM injected, 2-fold dilutions from 40 μM, -Ca2+ (1 mM EGTA), 25°C, 30 μl/min
[5] = target: FLAG-ySUMO-mT1r2 CTΔ (mouse); assay: as above
[6] = target: FLAG-ySUMO-mT1r3 CTΔ (mouse); assay: SPR; Biacore 2000; ySUMO-fusion proteins amine-coupled on a CM5 chip, ySUMO on the reference cell; mCaM injected, 2-fold dilutions from 40 μM, +Ca2+ (1 mM CaCl2), 25°C, 30 μl/min; KD from equilibrium responses, 1:1 model
[7] = target: FLAG-ySUMO-mT1r2 CTΔ (mouse); assay: as above
[8] = target: biotin-mT1r3 CT peptide (cytosolic C-terminal region of mouse taste receptor type 1 subunit 3) (mouse) (UniProt Q925D8); assay: SPR; Biacore 2000; biotinylated T1r peptides on a CAP chip (Biotin CAPture Kit); mCaM injected, 2-fold dilutions from 50 μM, -Ca2+ (1 mM EGTA), 25°C, 30 μl/min
[9] = target: biotin-mT1r1 CT peptide (cytosolic C-terminal region of mouse taste receptor type 1 subunit 1) (mouse) (UniProt Q99PG6); assay: as above
[10] = target: biotin-mT1r2 CT peptide (cytosolic C-terminal region of mouse taste receptor type 1 subunit 2) (mouse) (UniProt Q925I4); assay: as above

biotin-mT1r3 CT peptide (cytosolic C-terminal region of mouse taste receptor type 1 subunit 3) (mouse), sequence (Q925D8 other isoform, or with tags, fused parts or gaps): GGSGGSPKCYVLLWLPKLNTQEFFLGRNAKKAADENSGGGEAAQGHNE
biotin-mT1r2 CT peptide (cytosolic C-terminal region of mouse taste receptor type 1 subunit 2) (mouse), sequence (Q925I4 other isoform, or with tags, fused parts or gaps): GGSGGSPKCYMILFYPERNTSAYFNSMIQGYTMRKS
biotin-mT1r1 CT peptide (cytosolic C-terminal region of mouse taste receptor type 1 subunit 1) (mouse), sequence (Q99PG6 other isoform, or with tags, fused parts or gaps): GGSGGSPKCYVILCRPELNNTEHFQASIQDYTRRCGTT

Req value at 50 μM mCaM injection [1]: 36.7 RU
Req value at 25 μM mCaM injection [2]: 10.6 RU
Req value at 50 μM mCaM injection [3]: 11 RU
response at 40 μM mCaM injection [4]: 13 RU
response at 40 μM mCaM injection [5]: 9.2 RU
Kd [6]: 80 µM
Req value at 40 μM mCaM injection [6]: 101 RU
Kd [7]: 41 µM
Req value at 40 μM mCaM injection [7]: 114 RU
response at 50 μM mCaM injection [8]: 16 RU
response at 50 μM mCaM injection [9]: 5 RU
response at 50 μM mCaM injection [10]: 9.4 RU
Substance: mouse calmodulin (from UniProt P0DP26 1-149) (natural protein)
